This note sets out measurements from paper PMC5844954.

The target in test [1] is human LGN TPR domain, residues 1-350, FLAG-tagged (and a GFP-tagged copy) (human). The test is described as follows: co-IP; HEK293T co-transfected with FLAG-LGN^TPR, GFP-LGN^TPR and GFP-Insc^ASYM-ΔαB; anti-FLAG M2 sepharose beads, modified JS buffer, 1 h at 4 °C.
For test [2], the target named is human LGN TPR domain, fragment 15-350 (human). The test is described as follows: SEC; purified co-expressed complexes on a size-exclusion column with globular markers, Coomassie SDS-PAGE of peak fractions. On the technique in general: Size exclusion chromatography separates by hydrodynamic size, large species first.

Chain of human LGN TPR domain, residues 1-350, FLAG-tagged (and a GFP-tagged copy) (human) (P81274 1-350): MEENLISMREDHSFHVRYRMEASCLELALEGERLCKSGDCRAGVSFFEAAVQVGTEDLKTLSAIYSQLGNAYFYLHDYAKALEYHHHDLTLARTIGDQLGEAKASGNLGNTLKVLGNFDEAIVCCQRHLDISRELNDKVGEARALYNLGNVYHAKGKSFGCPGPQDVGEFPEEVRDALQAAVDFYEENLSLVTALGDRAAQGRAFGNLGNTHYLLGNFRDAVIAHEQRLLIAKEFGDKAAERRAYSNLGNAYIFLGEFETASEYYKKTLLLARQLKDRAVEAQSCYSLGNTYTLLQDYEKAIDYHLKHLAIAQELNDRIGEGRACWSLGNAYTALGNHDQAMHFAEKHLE

B1: human GFP-Insc^ASYM-ΔαB (Insc^ASYM lacking residues 62-191) (domain or fragment)
chain: MMALPGGRHLDSVTLPGQRLHLMQVDSVQRWMEDLKLMTECECMCVLQAKPISLEEDAQGDVQALVRKIDASDNIYTTESTTGNLFSLTQEGAPLCRIIAKEGGVVALFKVCRQDSFRCLYPQALRTLASICCVEEGVHQLEKVDGVLCLADILTDNSHSEATRAEAAAVVAQVTSPHLPVTQHLSS
B1 gave a stoichiometry N (Insc per LGN (1:1)) in test [1] of 1.

B2: human 6His-tagged full-length Insc (residues 1-532) (natural protein)
chain: MMALPGGRHLDSVTLPGQRLHLMQVDSVQRWMEDLKLMTECECMCVLQAKPISLEEDAQGDLILAGGPGPGDPLQLLLKRGWVISTELRRIGQKLAQDRWARVHSMSVRLTCHARSMVSEYSAVSRNSLKEMGEIEKLLMEKCSELSAVTERCLQVENEHVLKSMKACVSETLSMLGQHFGQLLELALTREVQALVRKIDASDNIYTTESTTGNLFSLTQEGAPLCRIIAKEGGVVALFKVCRQDSFRCLYPQALRTLASICCVEEGVHQLEKVDGVLCLADILTDNSHSEATRAEAAAVVAQVTSPHLPVTQHLSSFLESMEEIVTALVKLCQEASSGEVFLLASAALANITFFDTMACEMLLQLNAIRVLLEACSDKQRVDTPYTRDQIVTILANMSVLEQCASDIIQENGVQLIMGMLSEKPRSGTPAEVAACERVQQKAAVTLARLSRDPDVAREAVRLSCMSRLIELCRSPSERNSSDAVLVACLAALRRLAGVCPEGLQDSDFQQLVQPRLVDSFLLCSNMEESFV
B2 returned a stoichiometry N (Insc per LGN (2:2)) in test [2] of 1.
